T1: human IL1RAcP domain 3 (AG-12127) (human)
T1 construct: also called domain 3 of human IL-1RAcP
T1 chain: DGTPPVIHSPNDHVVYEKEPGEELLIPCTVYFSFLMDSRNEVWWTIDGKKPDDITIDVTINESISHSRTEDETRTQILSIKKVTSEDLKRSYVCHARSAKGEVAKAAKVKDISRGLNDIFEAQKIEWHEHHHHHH

T2: human IL1RAcP domain 1 (AG-12335) (human)
T2 construct: also called domain 1 of human IL-1RAcP
T2 chain: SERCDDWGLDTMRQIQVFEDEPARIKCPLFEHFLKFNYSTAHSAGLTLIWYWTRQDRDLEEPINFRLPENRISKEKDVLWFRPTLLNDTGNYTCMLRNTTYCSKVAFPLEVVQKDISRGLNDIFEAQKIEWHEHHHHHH


Experiments:
[1] = molecular target: T3, cyIL-1RAP(1-367)_F-chLys_Avi (cynomolgus, biotinylated (Avi tag) in SPR; unlabeled in SET); experiment: solution equilibrium titration (SET), ECL read-out, IgG
T3 construct: cynomolgus IL-1RAcP (21-367) is UniProt A0A2K5X5J5; also called cynomolgus IL-1RAcP (AG-12211)
Method: (§1) MSD SulfoTAG™ NHS-Ester (Meso Scale Diagnostics) according to the manufacturer's instructions. […] Serial dilutions of unlabeled antigen were prepared, starting with a concentration at least 10 times higher than the expected KD. Wells without antigen were used to determine Bₘₐₓ values;
(§2) wells containing only assay buffer were used to determine background. […] MSD plates were coated with antigen on standard plates (30 μL per well). After washing the plate with PBS with 0.05% Tween 20, the equilibrated samples were transferred to the plates and incubated for 20 min. […] After washing the MSD plate and adding 30 μL/well MSD Read Buffer T with surfactant, electrochemiluminescence signals were detected using a MESO SECTOR S 600 (Meso Scale Diagnostics).
(§3) The data was evaluated with XLfit (IDBS) software applying customized fitting models.

[2] = molecular target: T4, hIL-1RAP(1-367)_F-chLys_Avi (human, biotinylated (Avi tag) in SPR and ELISA binning; unlabeled in SET); experiment: ELISA on human IL-1RAcP (AG-12210), IgG1f_AEASS titrated 0.007-200 nM, AP-coupled secondary antibody with AttoPhos, signal over background (S/BG)
T4 construct: also called human IL-1RAcP (AG-12210)
From the text: (§4) Bound antibodies were detected using respective alkaline-phosphatase (AP) coupled secondary antibodies in combination with ‘AttoPhos’ fluorescence substrate. Multiple washing steps have been performed in between individual assay steps.

human IL-1RAcP on cells [3] = molecular target: T5, human IL-1RAcP on cells (human, UniProt Q9NPH3 21-570); experiment: cell-based or functional assay
[4] = molecular target: cynomolgus IL-1RAcP on cells (cynomolgus, UniProt A0A2K5X5J5 21-570); experiment: cell-based or functional assay
[5] = molecular target: T4, hIL-1RAP(1-367)_F-chLys_Avi; experiment: solution equilibrium titration (SET), ECL read-out, IgG
Method: as §1, §2, §3

[6] = molecular target: T1, human IL1RAcP domain 3 (AG-12127); experiment: ELISA on directly coated human IL-1RAcP domain 3 (AG-12127), IgG titrated, S/BG
[7] = molecular target: T6, mouse (AG-12212) IL-1RAcP (mouse, UniProt Q61730 21-367, limits assumed); experiment: ELISA in Fc-capture mode of the IgGs, mouse IL-1RAcP (AG-12212), S/BG
T6 construct: Recombinant tagged antigen; also called recombinant mouse IL-1RAcP; mouse IL-1RAP
From the text: as §4

[8] = molecular target: T3, cyIL-1RAP(1-367)_F-chLys_Avi; experiment: ELISA on cynomolgus IL-1RAcP (AG-12211), IgG1f_AEASS titrated 0.007-200 nM, AP-coupled secondary antibody with AttoPhos, signal over background (S/BG)
From the text: as §4

[9] = molecular target: T2, human IL1RAcP domain 1 (AG-12335); experiment: ELISA on directly coated human IL-1RAcP domain 1 (AG-12335), IgG titrated, S/BG
Method: All were assessed with direct coating of the antigen. […] An anti-His antibody served as positive control.

[10] = molecular target: T7, human IL1RAcP domain 1/2 (AG-12337) (human); experiment: ELISA on directly coated human IL-1RAcP domain 1/2 (AG-12337), IgG1f_AEASS titrated, S/BG
T7 construct: also called domain 1/2 of human IL-1RAcP

human IL-1RAcP on cells [11] = molecular target: T5, human IL-1RAcP on cells; experiment: FACS on Flp-In CHO cells over-expressing human IL-1RAcP, IgG1f_AEASS titrated 1e-12 to 2e-7 M, median FL2-H over background
recombinant rat IL-1RAcP = recombinant rat IL-1RAcP (rat, UniProt Q63621 21-367, limits assumed); experiment: ELISA (FIG. 1-3 cited)
[12] = molecular target: T4, hIL-1RAP(1-367)_F-chLys_Avi; experiment: SET, ratio of KD values
[13] = molecular target: T3, cyIL-1RAP(1-367)_F-chLys_Avi; experiment: SET, ratio of KD values
[14] = molecular target: T4, hIL-1RAP(1-367)_F-chLys_Avi; experiment: ELISA binning; competitor: coated CAN04 FabCys-AviHis; 1.5 nM biotinylated human IL-1RAcP (AG-12210) pre-incubated with the titrated Fab; captured IL-1RAcP detected with streptavidin-AP
Method: (§5) Epitope binning was performed using an ELISA-based competition assay. The experiments were performed using either IgG1f_AEASS or FabCys-AviHis. Antibodies were diluted to three (3) nM (for IgGs) or to 20 nM (in case of Fabs) in PBS. […] The next day 90 μL/well blocking solution (5% BSA in PBS) was added to the plate followed by an incubation at RT for at least 1 h. During incubation, the competing antibodies, including reference and negative control antibodies, were diluted in assay buffer (1xPBS, 0.5% BSA, 0.02% Tween). […] Following the incubation of the blocking solution, the ELISA plates were washed 3× with PBST. Subsequently, 20 μl/well of the prepared antibody/antigen solution was transferred to the wells and incubated for 30 min with gentle agitation. Subsequently, plates were washed 3× using PBS-T.
(§6) For detection 20 μl of a prepared streptavidin-alkaline phosphatase conjugate solution was added to the wells in order to detect bound biotinylated human IL-1RAcP. Incubation happened for 30 min with gentle agitation. Following the incubation with streptavidin-alkaline phosphatase conjugate, assay plates were washed 5× with PBS-T. Then 20 μl of AttoPhos substrate (diluted 1:5 in H₂O) was added to the wells. Plates were incubated for 10 min at RT and readout happened using a Tecan M1000 Pro Reader.
(§7) Every graph represents an individual first antibody in the FabCys-AviHis format coated on the surface. […] Subsequently, preformed antigen antibody complex was added to the respective wells with the surface coated first antibody. Detection happened via the biotin of IL-1RAcP using a streptavidin-alkaline phosphatase conjugate.

[15] = molecular target: T3, cyIL-1RAP(1-367)_F-chLys_Avi; experiment: SPR (Biacore), biotinylated antigen captured, FabCys-AviHis as analyte, 1:1 fit; comment: Koff approaching assay limit
Method: (§8) Approximately 3000 RU capture reagent was bound. This surface was used to load biotinylated antigen to generate a low-density surface for subsequent kinetic characterization (approx. 60-100 RU antigen loaded). […] After injecting the last and highest analyte concentration, a long dissociation phase was recorded. […] A blank injection of assay buffer (HBS-EP+) following the same injection pattern as described above was recorded and subtracted from specific sensorgrams during analysis (double referencing). At the end of each cycle, the sensor was regenerated with one 120 s injection of 6 M guanidine hydrochloride in 250 mM NaOH, which completely removed capture reagent with loaded biotinylated antigen and bound Fab fragments. The obtained sensorgrams were fitted to a monovalent binding model using Biacore Insight Evaluation Software. The obtained values for rate constants kₒₙ and koff were used to calculate KD.

[16] = molecular target: T4, hIL-1RAP(1-367)_F-chLys_Avi; experiment: SPR (Biacore), biotinylated antigen captured, FabCys-AviHis as analyte, 1:1 fit
Method: as §8

[17] = molecular target: T4, hIL-1RAP(1-367)_F-chLys_Avi; experiment: ELISA binning; competitor: coated Y024084 FabCys-AviHis (sheet title Y024084_FAB COATED); 1.5 nM biotinylated human IL-1RAcP (AG-12210) pre-incubated with the titrated Fab; captured IL-1RAcP detected with streptavidin-AP
Method: as §5, §6, §7

[18] = molecular target: T4, hIL-1RAP(1-367)_F-chLys_Avi; experiment: ELISA binning; competitor: coated Y024149 FabCys-AviHis (sheet title Y024149_FAB COATED); 1.5 nM biotinylated human IL-1RAcP (AG-12210) pre-incubated with the titrated Fab; captured IL-1RAcP detected with streptavidin-AP
Method: as §5, §6, §7

[19] = molecular target: T4, hIL-1RAP(1-367)_F-chLys_Avi; experiment: ELISA binning; competitor: coated Y024148 FabCys-AviHis; 1.5 nM biotinylated human IL-1RAcP (AG-12210) pre-incubated with the titrated Fab; captured IL-1RAcP detected with streptavidin-AP
Method: as §5
For detection 20 μl of a prepared streptavidin-alkaline phosphatase conjugate solution was added to the wells in order to detect bound biotinylated human IL-1RAcP. Incubation happened for 30 min with gentle agitation. Following the incubation with streptavidin-alkaline phosphatase conjugate, assay plates were washed 5× with PBS-T. Then 20 μl of AttoPhos substrate (diluted 1:5 in H₂O) was added to the wells. Plates were incubated for 10 min at RT and readout happened using a Tecan M1000 Pro Reader. […]

[20] = molecular target: T3, cyIL-1RAP(1-367)_F-chLys_Avi; experiment: SPR (Biacore), biotinylated antigen captured, FabCys-AviHis as analyte, 1:1 fit; comment: Koff at assay limit
Method: as §8

Row | Binder | Kd [1] | EC50 (read off the curve) [2] | IC50, IFNγ release, PBMC stimulated with IL-1β (human IL-1RAcP on cells [3]) | IC50, IFNγ release, PBMC stimulated with IL-33 (human IL-1RAcP on cells [3]) | IC50, IL-8 release, HDFa stimulated with IL-1α (human IL-1RAcP on cells [3]) | IC50, IL-8 release, HDFa stimulated with IL-36α (human IL-1RAcP on cells [3]) | IC50, IL-8 release, HDFa stimulated with IL-36β (human IL-1RAcP on cells [3]) | IC50, IL-8 release, HDFa stimulated with IL-36γ (human IL-1RAcP on cells [3]) | IC50, IL-8 release, HEKa stimulated with IL-1β (human IL-1RAcP on cells [3]) | IC50, IL-8 release, HEKa stimulated with IL-36β (human IL-1RAcP on cells [3]) | IC50, IL-8 release, CyDFa stimulated with cynomolgus IL-1β [4] | Kd [5] | binding result [6] | binding result [7] | EC50 (read off the curve) [8] | binding result [9] | EC50 (read off the curve) [10] | IC50 (read off the curve) [14] | Kd [16] | other results
1 | R001032 (1A05) (antibody, human IgG1, kappa, V domains shown, Rabbit variable domains of prior art 1A05 on human IgG1 kappa constant regions with AEASS; also called P013.S.01.B.A05) VH: LEQSGGGAEGGLVKPGGSLELCCKASGFSLSTSYWRCWVRQAPGKGLEWIGCIYAGSGDVTYYANWVNGRFTLSRDIDQSTGCLQLNSLTAADTAMYYCASGVGFGYFNLWGQGTLVTVSS VL: ALVMTQTPSPVSAAVGGTVTINCQASEDIYSNLAWFQQKPGQPPKLLIYDASTLASGVPSRFSGSGSGTEFTLTISGLQSDDAATYYCLGVYTHISADNAFGGGTEVVVKR | 0.015 nM | 0.1 to 0.2 nM | 5 nM | 1.8 nM | 24 nM | 0.05 nM | 0.15 nM | 0.067 nM | 162 nM | 0.12 nM | 0.48 nM | 0.011 nM | no binding (tested: 2e-7 M) | no binding (tested: 200 nM) | 0.1 to 0.2 nM | no binding (tested: 2e-7 M) | ~4 nM |  |  | EC50 (read off the curve) (human IL-1RAcP on cells [11]): ~2 nM
2 | Y024148_h_FabCys-AviH (Fab, V domains shown, Disulphide-linked Fab with Avi and His tags; also called Y024148 in FabCys-AviHis format) VH: EVQLVESGGGLVQPGGSLRLSCAASGGTIGGSAVHWVRQAPGKGLVWVSRILTYSSTTQYAESVKGRFTISRDNAKNTLYLQMNSLRAEDTAVYYCARGSSEYPKFDIWGQGTLVTVSS VL: DIQMTQSPSTLSASVGDRVTITCRASQSISSWLAWYQQKPGKAPKLLIYDASSLESGVPSRFSGSGSGTEFTLTISSLQPEDFATYYCHQLLIYPHTFGQGTKVEIKR |  |  |  |  |  |  |  |  |  |  |  |  |  |  |  |  |  | ~1 nM | 0.018 nM | Kd [15]: 0.008 nM

Now from value to binder, other results behind:

Row | Kd [1] | EC50 (read off the curve) [2] | IC50, IFNγ release, PBMC stimulated with IL-1β (human IL-1RAcP on cells [3]) | IC50, IFNγ release, PBMC stimulated with IL-33 (human IL-1RAcP on cells [3]) | IC50, IL-8 release, HDFa stimulated with IL-1α (human IL-1RAcP on cells [3]) | IC50, IL-8 release, HDFa stimulated with IL-36α (human IL-1RAcP on cells [3]) | IC50, IL-8 release, HDFa stimulated with IL-36β (human IL-1RAcP on cells [3]) | IC50, IL-8 release, HDFa stimulated with IL-36γ (human IL-1RAcP on cells [3]) | IC50, IL-8 release, HEKa stimulated with IL-1β (human IL-1RAcP on cells [3]) | IC50, IL-8 release, HEKa stimulated with IL-36β (human IL-1RAcP on cells [3]) | IC50, IL-8 release, CyDFa stimulated with cynomolgus IL-1β [4] | Kd [5] | binding result [6] | binding result [7] | EC50 (read off the curve) [8] | binding result [9] | EC50 (read off the curve) [10] | IC50 (read off the curve) [14] | Kd [16] | Binder | other results
3 | 0.001 nM | 0.1 to 0.2 nM | 1.2 nM | 0.72 nM | 1.2 nM | 0.014 nM | 0.039 nM | 0.042 nM | 35 nM | 0.2 nM | 0.043 nM | 0.002 nM | no binding (tested: 2e-7 M) | no binding (tested: 200 nM) | 0.1 to 0.2 nM | no binding (tested: 2e-7 M) | ~6 nM |  |  | Y024148_h_IgG1f_AEASS (antibody, V domains shown, Human IgG1f with AEASS effector-silencing residues, kappa light chain) VH: EVQLVESGGGLVQPGGSLRLSCAASGGTIGGSAVHWVRQAPGKGLVWVSRILTYSSTTQYAESVKGRFTISRDNAKNTLYLQMNSLRAEDTAVYYCARGSSEYPKFDIWGQGTLVTVSS VL: DIQMTQSPSTLSASVGDRVTITCRASQSISSWLAWYQQKPGKAPKLLIYDASSLESGVPSRFSGSGSGTEFTLTISSLQPEDFATYYCHQLLIYPHTFGQGTKVEIKR | binding result (recombinant rat IL-1RAcP): no binding; fold stronger KD than reference R001031 (CAN04) [12]: ~10.5 fold; fold stronger KD than reference R001032 (1A05) [12]: ~5.5 fold; fold stronger KD than reference R001031 (CAN04) [13]: ~16 fold; fold stronger KD than reference R001032 (1A05) [13]: ~15 fold
4 |  |  |  |  |  |  |  |  |  |  |  |  |  |  |  |  |  | ~1 nM | 0.025 nM | Y024149_h_FabCys-AviH (Fab, V domains shown, Disulphide-linked Fab with Avi and His tags; also called Y024149 in FabCys-AviHis format) VH: EVQLVESGGGLVQPGGSLRLSCAASGGTFGGSAMHWVRQAPGKGLVWVSRILTYGGIATYAESVKGRFTISRDNAKNTLYLQMNSLRAEDTAVYYCARGSSEYPKFDIWGQGTLVTVSS VL: DIQMTQSPSTLSASVGDRVTITCRASQSISSWLAWYQQKPGKAPKLLIYDASSLESGVPSRFSGSGSGTEFTLTISSLQPEDFATYYCHQLLIYPHTFGQGTKVEIKR | IC50 (read off the curve) [17]: ~0.7 nM; IC50 (read off the curve) [18]: ~0.7 nM; IC50 (read off the curve) [19]: ~0.7 nM; Kd [20]: 0.006 nM

Source: US20220411517A1 (LEO PHARMA A S, published 2022)
